Experimental data as given in paper PMC10781630, “Structural basis of Gabija anti-phage defence and viral immune evasion” (Nature, 2023).
Substitutions are numbered along the chain they refer to.

T1: GajA E379A;GajB (Bacillus cereus VD045;Bacillus cereus …, UniProt J8H9C1;J8HQ06 1-578;1-494, E379A|)
T1 sequence 1: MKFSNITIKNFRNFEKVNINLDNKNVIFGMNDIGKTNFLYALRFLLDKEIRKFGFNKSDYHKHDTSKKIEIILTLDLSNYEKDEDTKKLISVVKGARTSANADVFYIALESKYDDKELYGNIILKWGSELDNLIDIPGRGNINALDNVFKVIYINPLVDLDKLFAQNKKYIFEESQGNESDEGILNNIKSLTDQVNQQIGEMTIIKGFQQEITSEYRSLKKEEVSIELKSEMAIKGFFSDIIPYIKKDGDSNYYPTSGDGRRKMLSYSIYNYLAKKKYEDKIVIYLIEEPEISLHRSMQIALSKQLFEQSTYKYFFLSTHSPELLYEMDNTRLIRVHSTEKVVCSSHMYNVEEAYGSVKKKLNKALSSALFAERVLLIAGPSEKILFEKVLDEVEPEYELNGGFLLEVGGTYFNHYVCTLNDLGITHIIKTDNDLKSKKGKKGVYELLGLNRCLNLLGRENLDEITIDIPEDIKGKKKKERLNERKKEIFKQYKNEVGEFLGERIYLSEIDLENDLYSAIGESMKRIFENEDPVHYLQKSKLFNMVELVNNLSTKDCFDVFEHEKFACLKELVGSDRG
T1 sequence 2: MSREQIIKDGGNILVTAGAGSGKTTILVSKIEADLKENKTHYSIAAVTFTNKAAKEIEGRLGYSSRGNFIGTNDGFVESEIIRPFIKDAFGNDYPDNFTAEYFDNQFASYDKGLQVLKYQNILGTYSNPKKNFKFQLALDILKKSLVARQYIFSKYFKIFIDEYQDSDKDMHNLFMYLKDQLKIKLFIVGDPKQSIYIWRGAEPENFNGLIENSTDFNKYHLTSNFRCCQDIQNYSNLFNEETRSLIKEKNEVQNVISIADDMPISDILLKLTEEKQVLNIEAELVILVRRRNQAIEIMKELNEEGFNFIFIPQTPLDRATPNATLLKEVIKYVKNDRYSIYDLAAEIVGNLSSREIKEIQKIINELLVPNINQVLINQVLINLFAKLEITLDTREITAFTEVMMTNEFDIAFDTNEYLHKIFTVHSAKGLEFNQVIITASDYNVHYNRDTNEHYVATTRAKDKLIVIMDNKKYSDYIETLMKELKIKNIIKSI

T2: GajA;GajB (Bacillus cereus VD045;Bacillus cereus …, UniProt J8H9C1;J8HQ06 1-578;1-494, |)
T2 sequence 1: T1 sequence 1 with A379E
T2 sequence 2: T1 sequence 2

T3: SUMO2-tagged GajAB complex (Bacillus cereus VD045), 4:4 (Bacillus cereus VD045, UniProt J8H9C1 2-578; J8HQ06 1-494)
T3 construct: GajA, Bacillus cereus VD045, IMG ID 2519684552; GajB, Bacillus cereus VD045, IMG ID 2519684553; also called SUMO2-GajAB; SUMO2-tagged BcGajAB; source: E. coli, co-expressed, purified (Ni-NTA, SEC); not shown: 6×His-SUMO2, N-terminal, kept; copies: 4 + 4
T3 sequence 1: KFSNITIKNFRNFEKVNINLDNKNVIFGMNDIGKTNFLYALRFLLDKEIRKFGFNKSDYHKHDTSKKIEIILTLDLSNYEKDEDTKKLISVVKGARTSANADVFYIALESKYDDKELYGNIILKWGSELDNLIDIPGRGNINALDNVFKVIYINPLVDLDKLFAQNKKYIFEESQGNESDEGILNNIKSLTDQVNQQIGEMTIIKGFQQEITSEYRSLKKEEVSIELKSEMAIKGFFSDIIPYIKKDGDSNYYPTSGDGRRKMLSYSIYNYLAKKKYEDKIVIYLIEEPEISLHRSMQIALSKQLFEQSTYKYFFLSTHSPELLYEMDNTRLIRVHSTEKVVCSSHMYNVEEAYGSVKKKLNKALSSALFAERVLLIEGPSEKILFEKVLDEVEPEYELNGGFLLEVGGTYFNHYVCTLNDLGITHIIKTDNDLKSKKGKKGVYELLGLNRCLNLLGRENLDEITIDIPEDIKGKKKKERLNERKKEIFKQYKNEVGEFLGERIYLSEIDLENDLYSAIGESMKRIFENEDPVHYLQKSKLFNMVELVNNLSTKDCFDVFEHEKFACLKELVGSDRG
T3 sequence 2: T1 sequence 2

B1: 56-bp scrambled dsDNA (dsDNA)
DNA 1: TTTTTTTTTTTTTTTTTGACATTACATTCAGTTTTTTTTTTTTTTTTTTTTTTTTT
DNA 2: AAAAAAAAAAAAAAAAAAAAAAAAACTGAATGTAATGTCAAAAAAAAAAAAAAAAA
B2: Bacillus cereus VD045 GajB, untagged, co-expressed with tagged GajA (enzyme)
chain: T1 sequence 2
notes: GajB, Bacillus cereus VD045, IMG ID 2519684553; also called BcGajB; source: co-purified (Ni-NTA, SEC) or in lysate
B3: 56-bp target dsDNA (dsDNA)
DNA 1: TTTTTTTTTTTTTTTTTAATAACCCGGTTATTTTTTTTTTTTTTTTTTTTTTTTTT
DNA 2: AAAAAAAAAAAAAAAAAAAAAAAAAATAACCGGGTTATTAAAAAAAAAAAAAAAAA
B4: Bacillus cereus VD045 GajA (Gabija protein A), expressed alone (enzyme)
chain: T3 sequence 1
notes: GajA, Bacillus cereus VD045, IMG ID 2519684552; gene codon-optimized and synthesized; the C-terminal 6×His construct is the only GajA-alone construct described; also called BcGajA; GajA alone; source: E. coli BL21(DE3) strains, purified (Ni-NTA, SEC); also co-expressed with Shewanella phage 1/4 Gad1, in lysate for Ni-NTA co-purification; not shown: 6×His, C-terminal, kept
B5: Bacillus cereus VD045 GajA, co-expressed with GajB, tag removed (subunit of the GajAB complex) (enzyme)
chain: T3 sequence 1
notes: GajA, Bacillus cereus VD045, IMG ID 2519684552; the 5×GS linker may stay on GajA after SENP2 cleavage; also called BcGajA; source: E. coli BL21(DE3) strains, co-expressed with GajB, purified (Ni-NTA, SUMO2 cleavage by hSENP2, SEC); not shown: 6×His-SUMO2-5×GS, N-terminal, cleaved
B6: Bacillus phage Phi3T Gad1 (Gabija anti-defence 1) (natural protein)
chain: MKLIGIKTSNCFLVSDNIEGKRYFHSQLDELLFDGKRATETYKSDWFKLEKEPSVIEKQMPAKKINHRYELKEGFQESELTPKVIKASYIGEDSEYYEVKGLYDLKFEEIPQQNEKIEFEMNVIEEIDGELKLQSHNFNLNYNLLDRIQTHPMLLETKPCYLSQEESYKIIRNHIKANINPKFARITSDYDFCLTVVKVLELYKPHEYIVDLNAMYKRRKPKLEKRFQTKREVEIYKVAPKAYQSYPIVEPFSGKDVEDLKSNIKKFLDDLMAKINEPLVECKCCKGRGVILNEN
notes: Gad1, Bacillus phage Phi3T, 35 kDa; Eight copies stand in the 4:4:8 GajAB–Gad1 complex; source: E. coli, co-expressed with SUMO2-GajAB (pBAD vector), co-purified (Ni-NTA, SEC)

How the values were obtained:
[1] = target: T1, GajA E379A;GajB; assay: EMSA; 5 mM Ca2+; conditions: protein: recombinant;recombinant; tags: N-terminal 6xHis-SUMO2-5xGS, cleaved by SENP2;none in co-expressed complex; chain copies: 4;4; label: none (ethidium bromide post-stain)
[2] = target: B5; assay: crystal structure; co-expressed and co-purified GajAB, 3.0 Å; hanging drop, 18 °C, 100 mM HEPES-NaOH pH 7.5, 2.4% PEG-400, 2.2 M ammonium sulfate; conditions: both partners purified
[3] = target: Bacillus cereus VD045 GajB, untagged, co-expressed with tagged GajA (Bacillus cereus VD045) (UniProt J8HQ06); assay: as above
[4] = target: T2, GajA;GajB; assay: EMSA; 5 mM Ca2+; conditions: protein: recombinant;recombinant; chain copies: 4;4; label: none (ethidium bromide post-stain)
[5] = target: the molecule itself; assay: SEC; 16/600 S200 (Superdex 200); recombinant BcGajA and BcGajB each run alone
[6] = target: the molecule itself; assay: crystal structure; co-expressed and co-purified GajAB, 3.0 Å; hanging drop, 18 °C, 100 mM HEPES-NaOH pH 7.5, 2.4% PEG-400, 2.2 M ammonium sulfate
[7] = target: T3, SUMO2-tagged GajAB complex (Bacillus …); assay: cryo-EM structure; SUMO2-GajAB–Gad1 (Phi3T) co-complex, 1 mg ml^-1, 2.57 Å D2 symmetry map; conditions: both partners purified
[8] = target: the molecule itself; assay: as above

B1
binding result [1]: binds

B2
stoichiometry N [2]: 1 GajB per GajA (4:4) | stoichiometry N [3]: 2

B3
binding result [4]: binds | binding result [1]: binds

B4
stoichiometry N [5]: 4

B5
stoichiometry N [6]: 4

B6
stoichiometry N [7]: 8 Gad1 per 4:4 GajAB complex | stoichiometry N [8]: 8
